Experimental data published in IntAct's records for PubMed 18787122.

B1: Secreted effector protein SifA (Salmonella typhimurium), Q56061 (parent)
chain: MPITIGNGFLKSEILTNSPRNTKEAWWKVLWEKIKDFFFSTGKAKADRCLHEMLFAERAPTRERLTEIFFELKELACASQRDRFQVHNPHENDATIILRIMDQNEENELLRITQNTDTFSCEVMGNLYFLMKDRPDILKSHPQMTAMIKRRYSEIVDYPLPSTLCLNPAGAPILSVPLDNIEGYLYTELRKGHLDGWKAQEKATYLAAKIQSGIEKTTRILHHANISESTQQNAFLETMAMCGLKQLEIPPPHTHIPIEKMVKEVLLADKTFQAFLVTDPSTSQSMLAEIVEAISDQVFHAIFRIDPQAIQKMAEEQLTTLHVRSEQQSGCLCCFL
partner: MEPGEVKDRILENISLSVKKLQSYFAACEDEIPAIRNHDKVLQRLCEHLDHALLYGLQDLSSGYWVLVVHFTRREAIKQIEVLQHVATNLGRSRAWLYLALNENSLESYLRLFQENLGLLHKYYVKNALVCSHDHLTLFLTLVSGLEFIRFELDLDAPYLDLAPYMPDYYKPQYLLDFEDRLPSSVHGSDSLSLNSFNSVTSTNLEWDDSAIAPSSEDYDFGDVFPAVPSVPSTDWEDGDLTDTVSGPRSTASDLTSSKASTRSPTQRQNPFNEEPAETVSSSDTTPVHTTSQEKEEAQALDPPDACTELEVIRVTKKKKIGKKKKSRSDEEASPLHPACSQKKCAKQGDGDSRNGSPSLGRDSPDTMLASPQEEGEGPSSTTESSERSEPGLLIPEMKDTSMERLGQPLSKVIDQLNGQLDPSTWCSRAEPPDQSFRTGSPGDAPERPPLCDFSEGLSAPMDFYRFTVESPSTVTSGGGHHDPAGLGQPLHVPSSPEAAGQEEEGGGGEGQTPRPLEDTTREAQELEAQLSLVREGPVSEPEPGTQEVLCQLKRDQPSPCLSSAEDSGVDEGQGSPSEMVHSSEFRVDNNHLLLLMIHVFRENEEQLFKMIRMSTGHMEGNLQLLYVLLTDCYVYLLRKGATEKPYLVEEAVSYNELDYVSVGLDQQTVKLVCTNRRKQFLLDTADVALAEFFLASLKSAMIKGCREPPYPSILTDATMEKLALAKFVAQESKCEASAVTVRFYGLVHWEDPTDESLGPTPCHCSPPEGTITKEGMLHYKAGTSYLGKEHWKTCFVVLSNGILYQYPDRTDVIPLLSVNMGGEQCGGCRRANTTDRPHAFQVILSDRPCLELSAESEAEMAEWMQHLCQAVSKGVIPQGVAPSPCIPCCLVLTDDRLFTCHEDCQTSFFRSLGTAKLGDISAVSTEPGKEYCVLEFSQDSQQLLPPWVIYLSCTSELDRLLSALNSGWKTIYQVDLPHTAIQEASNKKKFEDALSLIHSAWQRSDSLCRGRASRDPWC

Variants of: B1
Details: with pkhm2_human PLEKHM2, Q8IWE5

Variant	effect of a mutation on the interaction
W197A;E201A	decreasing interaction
